Here are results for six proteins from publication PMC8113546.

Series [1] is described as follows: flow cytometry of cell-surface B7H3. The conditions noted are these: glycan lost.
Series [2] is described as follows: IP of B7H3-WT-Flag, ubiquitin immunoblot. The conditions noted are these: glycan lost; control: untreated. (In general: Immunoblotting shows a protein as a band on a membrane.)
Series [3] is described as follows: CHX chase, remaining B7H3 by immunoblot (half-life). The conditions noted are these: glycan lost.
Series [4] is described as follows: flow cytometry of cell-surface B7H3, B7H3-WT cells. The conditions noted are these: glycan changed form; control: control sgRNA.
A short description of series [5]: immunoblot, MDA-MB-231 and HCC1806. The conditions noted are these: glycan changed form; control: control sgRNA.
Series [6] in a line: flow cytometry of cell-surface B7H3, MDA-MB-231. The conditions noted are these: glycan changed form; control: untreated.
A short description of series [7]: B7H3 IHC of 4T1 B7H3-WT tumours. The conditions noted are these: glycan changed form; control: PBS.
The nature of series [8]: flow cytometry of cell-surface B7H3, 4T1-B7H3KO. The conditions noted are these: glycan lost; control: B7H3-WT. In general terms: Flow cytometry measures light scatter and fluorescence of single cells or particles in a stream.

B1: B7H3: tunicamycin (TM) (protein)
parent chain: MLRRRGSPGMGVHVGAALGALWFCLTGALEVQVPEDPVVALVGTDATLCCSFSPEPGFSLAQLNLIWQLTDTKQLVHSFAEGQDQGSAYANRTALFPDLLAQGNASLRLQRVRVADEGSFTCFVSIRDFGSAAVSLQVAAPYSKPSMTLEPNKDLRPGDTVTITCSSYQGYPEAEVFWQDGQGVPLTGNVTTSQMANEQGLFDVHSILRVVLGANGTYSCLVRNPVLQQDAHSSVTITPQRSPTGAVEVQVPEDPVVALVGTDATLRCSFSPEPGFSLAQLNLIWQLTDTKQLVHSFTEGRDQGSAYANRTALFPDLLAQGNASLRLQRVRVADEGSFTCFVSIRDFGSAAVSLQVAAPYSKPSMTLEPNKDLRPGDTVTITCSSYRGYPEAEVFWQDGQGVPLTGNVTTSQMANEQGLFDVHSVLRVVLGANGTYSCLVRNPVLQQDAHGSVTITGQPMTFPPEALWVTVGLSVCLIALLVALAFVCWRKIKQSCEEENAGAEDQDGEGEGSKTALQPLKHSDSKEDDGQEIA
For the protein B1, the localisation_or_trafficking result in series [1] (control: untreated) is “decreases”. The “other: K48 ubiquitination” value in series [2] is “increases”. The degradation_or_half_life entry in series [3] (control: untreated) is recorded as “decreases”.

B2: B7H3: B7H3-8NQ (protein)
parent chain: B1 parent chain
As for B2, the localisation_or_trafficking entry in series [1] (control: B7H3-WT) was “abolishes”. The degradation_or_half_life result in series [3] (control: B7H3-WT) is “decreases”.

B3: B7H3: FUT8 knockout (protein)
parent chain: B1 parent chain
Take B3: the localisation_or_trafficking entry in series [4] is reported as “decreases”. In addition, the expression_or_secretion result in series [5] is “decreases”.

B4: B7H3: 2F-Fuc (protein)
parent chain: B1 parent chain
As for B4, in series [6], the localisation_or_trafficking entry is “decreases”.

B5: mouse B7H3: 2F-Fuc (protein)
parent chain: MLRGWGGPSVGVCVRTALGVLCLCLTGAVEVQVSEDPVVALVDTDATLRCSFSPEPGFSLAQLNLIWQLTDTKQLVHSFTEGRDQGSAYSNRTALFPDLLVQGNASLRLQRVRVTDEGSYTCFVSIQDFDSAAVSLQVAAPYSKPSMTLEPNKDLRPGNMVTITCSSYQGYPEAEVFWKDGQGVPLTGNVTTSQMANERGLFDVHSVLRVVLGANGTYSCLVRNPVLQQDAHGSVTITGQPLTFPPEALWVTVGLSVCLVVLLVALAFVCWRKIKQSCEEENAGAEDQDGDGEGSKTALRPLKPSENKEDDGQEIA
In the case of B5, the expression_or_secretion entry in series [7] was “decreases”.

B6: mouse B7H3: B7H3-4NQ (protein)
parent chain: B5 parent chain
Consider B6, for which the localisation_or_trafficking entry in series [8] is given as “abolishes”.
